This is an account of results in US10889844B2, “Methods of degrading or hydrolyzing a polysaccharide” (Novozymes A/S, priority 2010, dated 2021).

Common to all, as to format: biochemical
The nature of series [1]: Time course of filter paper cellulose degradation by […] with CelS2 (FIG. 25). The procedure: In reactions where no CelS2 was present, 40 μg/ml purified BSA was added in order to maintain an identical protein load. […] Data are mean+/−SD (N=3); error bars indicate SD.
Series [2] can be described thus: Filter paper degradation by […] with CelS2 or E7 (FIG. 20), sugars by HPLC. The protocol:
Reactions were run in 50 mM Bis-tris/HCl pH 6.5, 1 mM MgCl2, at 50° C. and 900 rpm (horizontal agitation). Control reactions containing the cellulosic substrate suspended in the same buffer as used for the enzyme assays gave no detectable signal for either glucose or cellobiose.
(§1) The mobile phase consisted of 5 mM sulfuric acid and the flow rate used was 1.0 ml/min. Eluted glucose and cellobiose were monitored by recording refractive index. Quantification was obtained by running glucose and cellobiose standards.
(§2) Assays performed to evaluate the function of E7 and CelS2 were set up using a variety of cellulosic substrates (AVICEL®, filter paper and steam exploded wood chips from poplar), at either pH 5.5 (20 mM sodium acetate buffer), 6.5 (20 mM Bis-Tris buffer) or 8.0 (20 mM Tris buffer) in reaction mixtures containing 1.0 mM MgCl2.

A short description of series [3]: Cellulase boosting properties of CelS2 at various pHs with monocomponent Cel7A. As to conditions: CelS2 with Cel7A; data not shown. The source says:
When probing the cellulose boosting properties of CelS2 at various pHs using monocomponent Cel7A as the cellulose hydrolytic component, pH 5.5 came out as the optimal pH for activity. […] The most obvious reason for the decrease in cellulose hydrolysis at increasing pH is the pH stability and efficiency of Cel7A. […] CelS2 is a bacterial enzyme that originates from Streptomyces species that are known to grow optimally on cellulosic substrates in approximately neutral pH conditions (Kontro et al., 2005, Letters in Applied Microbiology 41: 32-38.).

The nature of series [4]: Soluble products released from AVICEL by CBM33 proteins (MALDI-TOF MS, HPAEC).
Experimental: The main peaks are annotated with molecular weight and degree of polymerization (DP).
The DP of the oxidized cellooligosaccharides is indicated by n, where n=3 (the shortest labelled oxidized cellooligosaccharide has a DP of three (=n)). […] Peak annotation was performed by comparing the chromatogram with the chromatogram obtained for a chemically prepared mixture of oxidized cellooligosaccharides with lengths varying from DP1 to DP10.
The main peaks are annotated with molecular weight and degree of polymerization (DP). All annotated peaks are Na adducts of native cellooligosaccharides, oxidized cellooligosaccharides (denoted “ox”) or the sodium salts of oxidized cellooligosaccharides.
Products were analyzed after 20 hours of incubation in 20 mM ammonium acetate buffer pH 5.0, 1 mM MgCl2 at 50° C. and 900 rpm (vertical agitation).
Separation of native and oxidized cellooligosaccharides was achieved using a Dionex Bio-LC equipped with a CarboPack PA1, a column temperature of 30° C. and a flow of 0.25 ml/min, with starting conditions, i.e., 0.1 M NaOH. A stepwise linear gradient with increasing amounts of sodium acetate was applied, going from 0.1 M NaOH and 0.1 M sodium acetate in 10 minutes, then to 0.1 M NaOH and 0.3 M sodium acetate for 25 minutes then increasing to 0.1 M NaOH and 1.0 M sodium acetate at 30 minutes which was kept for 10 minutes. Column reconditioning was achieved by a one minute gradient to initial conditions and subsequent running at initial conditions for 14 minutes. Eluted oligosaccharides were monitored by PAD detection. Chromatograms were recorded and analysed using Chromeleon 7.0 Peak identification was achieved by a procedure including the following steps: oxidized cellooligosaccharides were separated using a Dionex Ultimate 3000 UHPLC system carrying a Hypercarb 150×2.1 mm column (Thermo Scientific) running a gradient of water/0.1% TFA and acetonitrile/0.1% TFA (from 20 to 80% acetonitrile) according to the method developed by Westphal et al., 2010, Journal of Chromatography A 1217: 689-695. Eluted peaks were manually fractioned, freeze-dried, re-dissolved in MilliQ water and identified using MALDI-TOF MS. Pure oxidized cellooligosaccharides with known identity were then analyzed using the HPEAC method described above in order to establish the identity of the oxidized cellooligosaccharides generated by CelS2 and E7.
A short description of series [5]: Filter paper degradation by HjCel7A with CelS2 over time (FIG. 26). As to conditions: 40 μg/ml CelS2, 5 μg/ml HjCel7A, pH 5.5, 50° C. The procedure: By far the major products of these reactions are cellooligosaccharides released by the cellulases (whose activity is boosted by CelS2). In the case of HjCel7A, the main product is cellobiose and formation of this product is shown. RG, indicates the presence of a reductant, in this case reduced glutathione. […] The reactions were run at 50° C.

The nature of series [6]: Filter paper degradation by Cel7A with CelS2 (FIG. 21), cellobiose by HPLC. The protocol: These reactions were conducted in 50 mM sodium acetate pH 5.5, 1 mM MgCl2, at 50° C., 900 rpm (horizontal incubation). Only the cellobiose concentration was quantified as the amount of glucose was minor (less than 5% of the total sugar). Control reactions containing the cellulosic substrate suspended in the same buffer as used for the enzyme assays gave no detectable signal for either glucose or cellobiose.
as §1, §2

A short description of series [7]: Soluble oxidized products from other cellulosic variants by CelS2 (MALDI-TOF MS). To be noted: results not shown. The source says: Finally, other cellulosic variants (filter paper and steam exploded sawdust from poplar) were also probed as substrates for CelS2. […] This is most likely due to the high DP of the cellulose in these substrates; cleavages on the crystalline surfaces will not easily lead to release of soluble (=short) cellooligosaccharides when the overall DP is very high. AVICEL® is special in that it is a form of microcrystalline cellulose that has a very low DP (˜60-100; Wallis et al., 1992, Carbohydrate Polymers 17: 103-110 and Mormann and U, 2002, Carbohydrate Polymers 50: 349-353) compared to that of the other substrates tested.

A short description of series [8]: Degradation of steam exploded saw dust from poplar by […] with CelS2 (FIG. 24). As to conditions: 1.0 μM CelS2, CELLUCLAST, 1.0 mM reduced glutathione, pH 5.5, 20 hours. The procedure:
as §2

Series [9] in a line: EfCBM33 boost of alpha-chitin degradation by chitinase EF0361. As to conditions: 2.0 mg/ml alpha-chitin, 0.3 μM EF0361, 0.3 μM EfCBM33, 1.0 mM reduced glutathione. The procedure:
(§3) For use in chitin degradation experiments, eight crystals were harvested from a 2 μL drop using a nylon loop and transferred to a 4 μL drop containing the crystallization liquor from the buffer reservoir. The crystals were mixed around in order to “rinse off” potential contaminants. After the first rinse, the crystals were transferred to a new 4 μL drop containing the crystallization liquor for a second rinsing cycle. Finally, all crystals were transferred to and dissolved in a 4 μL drop containing 20 mM Tris-HCl, pH 8.0. The resulting solution was diluted by adding it to a test tube containing 46 μL 20 mM Tris-HCl, pH 8.0. […] Soluble products in the supernatant of the reaction were analyzed by MALDI-TOF, using the same methods as those used for testing the activity of CBP21. Further, the ability of EfCBM33 to boost degradation of alpha-chitin was probed by conducting an experiment where 2.0 mg/ml alpha-chitin (shrimp shells) was incubated with 0.3 μM of the chitinase from Entreococcus feacalis (protein name (EF0361)) in the presence or absence of 0.3 μM EfCBM33 and 1.0 mM reductant (R: reduced glutathione) incubated at 37° C. with agitation at 900 rpm.

The nature of series [10]: EfCBM33 (dissolved crystals) on beta-chitin, MALDI-TOF MS. To be noted: 2.0 mg/ml beta-chitin. The protocol: as §3

“Also recorded” adds a separate entry of the source.

B1: CelS2: multidomain CBM33 with C-terminal CBM2 from Streptomyces coelicolor A3(2) (SEQ ID NO: 7) (protein)
chain: MVRRTRLLTLAAVLATLLGSLGVTLLLGQGRAEAHGVAMMPGSRTYLCQLDAKTGTGALDPTNPACQAALDQSGATALYNWFAVLDSNAGGRGAGYVPDGTLCSAGDRSPYDFSAYNAARSDWPRTHLTSGATIPVEYSNWAAHPGDFRVYLTKPGWSPTSELGWDDLELIQTVTNPPQQGSPGTDGGHYYWDLALPSGRSGDALIFMQWVRSDSQENFFSCSDVVFDGGNGEVTGIRGSGSTPDPDPTPTPTDPTTPPTHTGSCMAVYSVENSWSGGFQGSVEVMNHGTEPLNGWAVQWQPGGGTTLGGVWNGSLTSGSDGTVTVRNVDHNRVVPPDGSVTFGFTATSTGNDFPVDSIGCVAP
modifications: Streptomyces coelicolor
On to B1, for which the “effect on CELLUCLAST (CC) production of soluble glucose over time” value in [1] (10 mg/ml filter paper, 0.8 μg/ml CC, pH 5.5) was “production of soluble glucose continues”. In addition, the “Glc or Glc2 released without cellulase” value in series [1] (reactions with only CelS2) is “did not yield detectable amounts of Glc or Glc2”. The “increase of glucose yield versus CELLUCLAST only” value in [2] (no external electron donor, 24 hours) is on record as approximately 3.0 fold; in [2] (no external electron donor, 120 hours), approximately 9 fold; in series [2] (with external electron donor (1 mM reduced glutathione), 24 hours), approximately 5 fold; in series [2] (with external electron donor (1 mM reduced glutathione), 120 hours) it was approximately 11 fold. Also, the “activity at pH 6.5” value in [3] was “Less activity”. For the same molecule, in series [3], the “activity at pH 8.0” value was “no activity could be detected”. In series [3], the “optimal pH for activity” value was found to be 5.5. The “CelS2 activity at pH 8.0” value in [4] (AVICEL, FIG. 19) is given as “active”. For the same molecule, the “release of soluble native/oxidized cellooligosaccharides from AVICEL” value in series [4] (with external electron donor (ascorbic acid or reduced glutathione)) was “soluble oligomeric products were observed”. Moreover, in series [5], the “effect on Cel7A activity (cellobiose formation)” value is given as “boosts the activity of the cellulase, Cel7A; also recorded: prolongs the activity of Cel7A”. Further, the “improvement of Cel7A activity (cellobiose yield)” value turned out to be 5.5 fold in [6] (absence of external electron donor, 18 hours); 7.3 fold in [6] (absence of external electron donor, 40 hours); 6.7 fold in series [6] (presence of external electron donor, 18 hours); 9.8 fold in series [6] (presence of external electron donor, 40 hours). Besides, the soluble oxidized cellooligosaccharides result in [7] is reported as “Soluble oxidized cellooligosaccharides were not observed”. For the same molecule, in [8], the “cellulase boosting effect (cellobiose release)” value is approximately 2 fold.

B2: EfCBM33: family 33 CBM from Enterococcus faecalis (Uniprot ID:Q838S1; SEQ ID NO: 5) (protein, listed as Enterococcus faecalis)
chain: MKKSLLTIVLAFSFVLGGAALAPTVSEAHGYVASPGSRAFFGSSAGGNLNTNVGRAQWEPQSIEAPKNTFITGKLASAGVSGFEPLDEQTATRWHKTNITTGPLDITWNLTAQHRTASWDYYITKNGWNPNQPLDIKNFDKIASIDGKQEVPNKVVKQTINIPTDRKGYHVIYAVWGIGDTVNAFYQAIDVNIQ
As for B2, the “boost of chitinase activity on alpha-chitin” value in series [9] was “A boost of the chitinase activity is clearly observed”. In addition, in [10], the “oxidohydrolytic activity on beta-chitin (soluble products)” value is reported as “clearly showing the formation of oxidized products; also recorded: the product spectrum is dominated by even-numbered oxidized chitooligosaccharides”.
